Measured values reported in paper PMC2679143 (PLoS ONE, 2009).

B1: Cif from Photorhabdus asymbiotica (natural protein)
chain: MMREYSKEDDCVKEKTNLAESENVEADNYLEMDCLNYLAKLNGMPERKDHSLNSTKLIDDIIKLHNDRKGNKLLWNDNWQDKIIDRDLESIFKKIDEMVSEFGGIEIYKDIVGENPYDPTEPVCGYSAQNIFKLMTEGEHAVDPVKMAQTGKINGNEFAEKLEQLNSSNNYVALINDHRLGHMFLVDIPSTNREKVGYIYQSDLGDGALPALKIADWLKSRGKESINVNKLKKFLSNEFTMLSESEQKELIAEIFDINKDIANVKLGKIKKDKAVDVYLREYDLNDFISNIEKLKTKLV
notes: also called CifPa; P. asymbiotica Cif; source: E. coli BL21(DE3) or B834(DE3), pET28a, purified (Ni2+-IMAC, Superdex 75)
B2: Cif from Photorhabdus luminescens (natural protein)
chain: SKFKKNSINTIKLIDDIIALHNDPKGNKLLWNDNWQDKIINRDLANIFEKIDESVSELGGLEMYQEMVGVNPYDPTEPVCGLSAQNIFKLMTEGEHAVDPVEMAQTGKIDGNEFAESVDQLSSAKNYVALVNDRRLGHMFLIDIPSNDQETVGYIYQSDLGQGALPPLKIADWLNSRGKDAVSLNKLKKLLSREFNLLSDDEKRALISETLDIHKDVSNVELDRIKRDRGVDIYLTEYDVNNFYENIETLKSKLSNYDKKLSKPK
notes: also called CifPl; source: E. coli BL21(DE3) or B834(DE3), pET28a, purified (Ni2+-IMAC, Superdex 75)

What was measured:
[1] = molecular target: cycle inhibiting factor (Cif) from enteropathogenic Escherichia coli (EPEC) (enteropathogenic Escherichia coli (EPEC)); experiment: SEC
SEC = molecular target: the molecule itself; experiment: SEC

Molecule	stoichiometry N [1]	stoichiometry N (SEC)
cycle inhibiting factor (Cif) from enteropathogenic Escherichia coli (EPEC) (natural protein)	2	
B1		2
B2		2
